In the supplement of paper PMC10567573:
± gives the standard deviation.

Experiment: protein stability index of a GFP-peptide fusion (GPS, HEK-293T) (PSI 1-6); higher = more stable
Conditions: c terminus: a fixed tail appended
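Further: 24-mer peptide tiles fused after GFP, lentivirally expressed, FACS-sorted into six equal bins by GFP/DsRed ratio, decoded by Illumina sequencing, PSI is the read-weighted mean bin number.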

Sequence | protein stability index (treatment: DMSO) | protein stability index (treatment: MLN4924 1 uM, 8 h)
YSLGGVRSLNVASGSGKSGGYGFG [KRT71] | 2.72 ± 0.34 | 3.29 ± 0.49
YSSGSYDSIKTEVSGCPEDLTVGR [NOL4L] | 4.49 ± 0.23 | 4.44 ± 0.23
YSWNNRCMVEIVQKYDPDKDEWHK [KLHL13] | 2.84 ± 0.42 | 2.86 ± 0.25
YTRIWSLHDARLLRTIPSPYPASK [DCAF4] | 2.46 ± 0.48 | 2.87 ± 0.17
YYLHPLPAGAEYCSSARHPAWGHC [SCNN1D] | 2.12 ± 0.2 | 2.21 ± 0.12
